Laboratory results published in patent US20230203471A1, “METHOD AND PLATFORM FOR DISRUPTING INTRACELLULAR MICROTUBULES” (National Tsing Hua University, priority 2021, published 2023).

How the values were obtained:
[1] = target: MT-binding domain of ensconsin-cyan fluorescent protein-FKBP-rapamycin binding domain (EMTB-CFP-FRB) (Artificial Sequence); experiment: FRET live-cell imaging in co-transfected HeLa cells, 100 nM rapamycin
[2] = tested on: intracellular microtubules in HeLa cells; experiment: Live-cell imaging of MT disruption (MT filament area) in transfected HeLa cells; assay type: cell-based
Experimental: The procedures of live-cell imaging are as follows. Live transfected cells cultured on poly(d-lysine)-coated glass coverslips (Hecht Assistent) were treated with either 100 nM rapamycin for rapid induction of protein dimerization and translocation or MT-targeting agents (10 µM nocodazole or 500 µM colchicine) during imaging. Live-cell imaging was conducted on a Nikon T1 inverted fluorescence microscope (Nikon) with a 60× oil objective (Nikon), a Prime camera (Photometrics), and 37° C., 5% CO2 heat stage (Live Cell Instrument). Rapid recruitment of proteins of interest (POIs) was imaged at 5- or 10-sec intervals, whereas the process of MT disruption was imaged at 1-min intervals. Images were obtained using Nikon NIS-Elements AR software and processed with Huygens Deconvolution Software (Scientific Volume Imaging). Image analysis was mainly performed with Nikon NIS-Elements AR software.
The procedures of measurement of MT filament area are as follows. The MT filaments in living cells were labeled with EMTB-CFP-FRB and imaged in real time (RAW image). The rolling ball correction was used to remove the cytosol background from the RAW images, which was carried out with the Nikon NIS-Elements AR software. Images were processed to generate the binary MT filament pattern via the Otsu threshold and analyzed by Fiji software.
FIGS. 2D and 2E show rapidly recruiting engineered spastins onto MTs. […] The top three layers are cells that simultaneously express EMTB-CFP-FRB and dNSpastin3Q-YFP-FKBP. The lower three layers are cells that simultaneously express EMTB-CFP-FRB and dNSpastin-YFP-FKBP-C2Lact. The color bar on the right indicates the brightness value represented by the color of the FRET signal. […] Data are shown as the mean ± S.E.M. It was noteworthy that MT disruption triggered by dNSpastin3Q-YFP-FKBP upon rapamycin treatment (T½ = 11.05 ± 1.52 min) was much faster than that of dNSpastin-YFP-FKBP-C2Lact upon rapamycin treatment (T½ = 53.08 ± 8.08 min), and treatment of two common MTAs, nocodazole (10 µM; T½ = 54.02 ± 10.29 min), colchicine (500 µM; T½ = 94.28 ± 8.63 min; see FIGS. 2F to 2J). […] In FIG. 2H, HeLa cells transfected with the indicated constructs were treated with nocodazole (Noc)([…], a type of MTA), colchicine (Col)(500 µM, a type of MTA), or rapamycin (Rapa)(100 nM); scale bar, 10 µm. […] Data are shown as the mean ± S.E.M. Student’s t-tests were performed, with the resulting p-values indicated.

[3] = target: intracellular microtubules (MTs)
[4] = tested on: cytosolic MTs in HeLa cells; experiment: Immunofluorescence staining of α-tubulin in HeLa cells expressing spastin constructs; assay type: cell-based; details: expression in HeLa cells, α-tubulin intensity
Experimental: The procedures of immunofluorescence staining are as follows. Cells cultured in borosilicate glass Lab-Tek eight-well chambers (Nunc) were fixed in 4% paraformaldehyde (Electron Microscopy Sciences) at room temperature for 15 min. Fixed cells were permeabilized with 0.1% Triton X-100 and then incubated in blocking solution (phosphate-buffered saline with 2% bovine serum albumin) for 30 min at room temperature. To label cytosolic MTs, primary ciliary membrane, and axonemal MTs, cells were incubated for 1 hr at room temperature with mouse antibody against α-tubulin (1:500; Sigma Aldrich, T6199), rabbit antibody against Arl13b (1:500; Proteintech, 17711-1-AP), mouse antibody against glutamylated tubulin (1:100; Adipogen, AG-20B-0020-C100), mouse antibody against acetylated tubulin (1:500; Sigma Aldrich, T7451), rat antibody against tyrosinated tubulin (1:100; Sigma Aldrich, MAB1864), and mouse antibody against detyrosinated tubulin (1:100; MERCK, AB3201) each of which was diluted in blocking solution. Cells were then washed with PBS and incubated for 1 hr with appropriate secondary antibodies (1:1000 dilution; Thermo Fisher) at room temperature.
Spastin is a MT-cleaving enzyme that is ubiquitous in nearly all eukaryotic cells. Expression of full-length spastin (SpastinFL-YFP; the amino acid sequence of spastin is SEQ ID NO: 1) and truncated spastin without the N-terminal 1-140 amino acids (dNSpastin-YFP) in HeLa cells removed significant amounts of cytosolic MTs, 47.45% and 42.86%, respectively, relative to YFP-transfected control cells (See FIGS. 2A to 2C). This means that both full-length spastin and truncated spastin without N-terminal 1-140 amino acids have the effect on disrupting microtubules. FIGS. 2A to 2C show the microtubule cleavage activity of artificially engineered spastin enzyme. […] The dotted line on the right indicates the periphery of the cell that expresses spastin. […] SpastinFL expressed in cells can disrupt the intracellular microtubules. Making SpastinFL be located in the cytosol, truncated spastin would also disrupt the intracellular microtubules, so it would also be located in the cytosol. […] The truncated spastin is used in the subsequent experiments. […] Compared with the YFP control group, both SpastinFL-YFP and dNSpastrin-YFP can disrupt about 40% of the microtubules. Thus the N-terminal fragment (1-140 amino acids) was dispensable for Spastin-mediated MT severing. […]

[5] = tested on: EMTB-YFP-CIBN-labeled MTs in COS7 cells; experiment: Blue-light-induced recruitment of Cry2 proteins onto EMTB-YFP-CIBN-labeled MTs and MT disassembly; assay type: cell-based, African green monkey
Experimental: The procedures of photostimulation are as follows. COS7 cells were plated on poly(d-lysine)-coated coverslips and cultured in six-well plates (Thermo Scientific) for 48 hr. Before imaging, cells were incubated with SPY650-tubulin (1000-fold dilution; Spirochrome) at 37° C. for 1 hr. Local photostimulation was carried out with a fluorescence microscope (Nikon) equipped with a digital micromirror device, polygon 400 (MIGHTEX), and a 488-nm light source. Cells were illuminated with the blue light (5 sec on/1 sec off; 1.6 nW/µm^2) for the indicated duration. The mCherry and SPY650-tubulin were simultaneously imaged during photostimulation using Nikon element AR software.
The inventors next tried to use an optogenetic system to trigger MT disassembly in a sub-cellular region of interest during a specific period of time. Cryptochrome 2 (Cry2) (SEQ ID NO:14) and CIBN (N-terminal 170 amino acids of CIB1) (SEQ ID NO:15), two blue light-sensitive dimerizing partners, were used in our MT-manipulating system. Cry2, which was tagged with the red fluorescent protein mCherry (mCh—Cry2), was rapidly translocated onto EMTB—YFP—CIBN-labeled MTs only in regions illuminated with light (T½ = 34.6 ± 7.58 sec) and dissociated from MTs to the cytosol when the light was off (T½ = 28.2 ± 4.88 sec; see FIGS. 6A and 6B).
FIGS. 6A and 6B show using light to disassemble MTs in a reversible and location-specific manner. In FIG. 6A, COS7 cells co-transfected with EMTB—YFP—CIBN and mCh—Cry2 (red) were incubated with SPY650-tubulin (SPY650-tub) to visualize MTs; the cells were illuminated by blue light within a specified region (indicated by the dotted circle) for the indicated time period; scale bar, 10 µm.
The inventors then used light to control spastin-mediated MT disassembly in a spatially and temporally specific manner. dNSpastin3Q tagged with mCh-Cry2 was co-expressed with EMTB—YFP—CIBN in COS7 cells. MTs were labeled with SPY650-tubulin in these experiments.
FIGS. 6C and 6D show using light to disassemble MTs in a reversible and location-specific manner. In FIG. 6C, COS7 cells co-transfected with EMTB-YFP-CIBN and dNSpastin3Q-mCh—Cry2 were incubated with SPY650-tubulin to visualize MTs; the cells were illuminated by blue light as in FIG. 6A; scale bar, 10 µm. […] Data are shown as the mean ± S.E.M.

Sequence of MT-binding domain of ensconsin-cyan fluorescent protein-FKBP-rapamycin binding domain (EMTB-CFP-FRB) (Artificial Sequence) (chain, as listed by the source): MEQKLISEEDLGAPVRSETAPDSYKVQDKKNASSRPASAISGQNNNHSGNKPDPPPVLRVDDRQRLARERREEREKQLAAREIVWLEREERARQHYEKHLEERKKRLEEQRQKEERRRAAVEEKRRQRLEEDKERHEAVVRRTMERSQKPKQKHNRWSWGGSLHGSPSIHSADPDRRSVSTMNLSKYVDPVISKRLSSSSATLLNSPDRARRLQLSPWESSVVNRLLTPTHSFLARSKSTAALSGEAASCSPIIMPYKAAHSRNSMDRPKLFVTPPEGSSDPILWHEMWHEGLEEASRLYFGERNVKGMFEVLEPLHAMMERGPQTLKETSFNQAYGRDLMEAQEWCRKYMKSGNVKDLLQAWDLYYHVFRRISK

yellow fluorescent protein-tagged FKBP (YFP-FKBP)
T½ of translocation [1]: 5.73 s

COc1cc2c(c(OC)c1OC)-c1ccc(OC)c(=O)cc1[C@@H](NC(C)=O)CC2 [colchicine]
microtubules removed within one hour ([2]; 500 µM colchicine): 49%
time required to disrupt half of the intracellular microtubules ([2]; colchicine 500 µM): 94.28 ± 8.63 min
T½ of MT disruption ([2]; colchicine 500 µM, HeLa cells): 1.571 ± 0.144 h

B1: YFP-tagged full-length spastin (SpastinFL-YFP) (enzyme)
chain: MAAKRSSGTAPAPASPSPPAPGPGGEAESVRVFHKQAFEYISIALRIDEEEKGQKEQAVEWYKKGIEELEKGIAVIVTGQGEQYERARRLQAKMMTNLVMAKDRLQLLEKLQPVLQFSKSQTDVYNESTNLTCRNGHLQSESGAVPKRKDPLTHASNSLPRSKTVLKSGSAGLSGHHRAPSCSGLSMVSGARPGPGPAATTHKGTPKPNRTNKPSTPTTAVRKKKDLKNFRNVDSNLANLIMNEIVDNGTAVKFDDIAGQELAKQALQEIVILPSLRPELFTGLRAPARGLLLFGPPGNGKTMLAKAVAAESNATFFNISAASLTSKYVGEGEKLVRALFAVARELQPSIIFIDEVDSLLCERREGEHDASRRLKTEFLIEFDGVQSAGDDRVLVMGATNRPQELDEAVLRRFIKRVYVSLPNEETRLLLLKNLLCKQGSPLTQKELAQLARMTDGYSGSDLTALAKDAALGPIRELKPEQVKNMSASEMRNIRLSDFTESLKKIKRSVSPQTLEAYIRWNKDFGDTTV
removal of cytosolic MTs (normalized intensity of α-tubulin) [3]: 47.5%

B2: YFP-tagged truncated spastin without the N-terminal 1-140 amino acids (dNSpastin-YFP) (enzyme)
chain: MESGAVPKRKDPLTHASNSLPRSKTVLKSGSAGLSGHHRAPSCSGLSMVSGARPGPGPAATTHKGTPKPNRTNKPSTPTTAVRKKKDLKNFRNVDSNLANLIMNEIVDNGTAVKFDDIAGQELAKQALQEIVILPSLRPELFTGLRAPARGLLLFGPPGNGKTMLAKAVAAESNATFFNISAASLTSKYVGEGEKLVRALFAVARELQPSIIFIDEVDSLLCERREGEHDASRRLKTEFLIEFDGVQSAGDDRVLVMGATNRPQELDEAVLRRFIKRVYVSLPNEETRLLLLKNLLCKQGSPLTQKELAQLARMTDGYSGSDLTALAKDAALGPIRELKPEQVKNMSASEMRNIRLSDFTESLKKIKRSVSPQTLEAYIRWNKDFGDTTV
cytosolic MTs removed relative to YFP-transfected control cells [4]: 42.86%
cytosolic MTs removed relative to YFP-transfected control cells ([4]; listed as dNSpastrin-YFP): about 40%
removal of cytosolic MTs (normalized intensity of α-tubulin) [3]: 42.9%

B3: dNSpastin3Q-mCh—Cry2: dNSpastin3Q tagged with mCh-Cry2 (protein)
chain: MESGAVPKRKDPLTHASNSLPRSKTVLKSGSAGLSGHHRAPSCSGLSMVSGARPGPGPAATTHKGTPKPNRTNKPSTPTTAVRQQQDLKNFRNVDSNLANLIMNEIVDNGTAVKFDDIAGQELAKQALQEIVILPSLRPELFTGLRAPARGLLLFGPPGNGKTMLAKAVAAESNATFFNISAASLTSKYVGEGEKLVRALFAVARELQPSIIFIDEVDSLLCERREGEHDASRRLKTEFLIEFDGVQSAGDDRVLVMGATNRPQELDEAVLRRFIKRVYVSLPNEETRLLLLKNLLCKQGSPLTQKELAQLARMTDGYSGSDLTALAKDAALGPIRELKPEQVKNMSASEMRNIRLSDFTESLKKIKRSVSPQTLEAYIRWNKDFGDTTVMKMDKKTIVWFRRDLRIEDNPALAAAAHEGSVFPVFIWCPEEEGQFYPGRASRWWMKQSLAHLSQSLKALGSDLTLIKTHNTISAILDCIRVTGATKVVFNHLYDPVSLVRDHTVKEKLVERGISVQSYNGDLLYEPWEIYCEKGKPFTSFNSYWKKCLDMSIESVMLPPPWRLMPITAAAEAIWACSIEELGLENEAEKPSNALLTRAWSPGWSNADKLLNEFIEKQLIDYAKNSKKVVGNSTSLLSPYLHFGEISVRHVFQCARMKQIIWARDKNSEGEESADLFLRGIGLREYSRYICFNFPFTHEQSLLSHLRFFPWDADVDKFKAWRQGRTGYPLVDAGMRELRATGWMHNRIRVIVSSFAVKFLLLPWKWGMKYFWDTLLDADLECDILGWQYISGSIPDGHELDRLDNPALQGAKYDPEGEYIRQWLPELARLPTEWIHHPWDAPLTVLKASGVELGTNYAKPIVDIDTARELLAKAISRTREAQIMIGAA
reversibility in the dark ([5]; COS7 cells placed back in the dark): MT reassembly occurred
light-induced MT disassembly ([5]; COS7 cells, local blue light illumination, SPY650-tubulin): disassembly of MTs only in illuminated regions
